This is an account of results in patent JP2018158894A (dated 2018).

In the assay the target is T1, ヒンジ領域組換えタンパク質 (LGR6 hinge region partial protein, amino acids 446-567, with Trx-, S- and His-tags) (Homo sapiens (Human), UniProt Q9HBX8 446-567).
T1 construct: Used as immunogen and as ELISA antigen; also called LGR6のヒンジ領域部分タンパク質; hinge region recombinant protein; not shown: N-terminal Trx-, S- and His-tag from the pET32b vector; C-terminal His-tag from the pET32b vector
T1 sequence: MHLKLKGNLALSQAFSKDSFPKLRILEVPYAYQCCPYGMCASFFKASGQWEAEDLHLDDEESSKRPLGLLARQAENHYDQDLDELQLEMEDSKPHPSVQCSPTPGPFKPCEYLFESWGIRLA
The assay is described as follows: Ag-ELISA, hybridoma culture supernatant on coated protein. On the technique in general: An ELISA detects its analyte on a solid surface through an enzyme-linked reagent.

B1: m164抗体 (anti-LGR6 mouse monoclonal antibody produced by hybridoma clone 164) (antibody, V domains shown)
VH: EVQLQQSGPELVKPGASVKISCKTSGYTFTEYTMHWVKQSHGKSLEWIGGINPYNRVSSYNQRFKGKATLTVDKSSSTAYMELRSLTSEDSAVYYCARRYDVFDSWGQGTTLTVSS
VL: DIVMSQSPSSLAVSVGEKVSMSCKSSQSLLYSSNQKNYLAWYQQKPGQSPKLLISWASTRESGVPARFTGSGSGTDFTLTISSVRAEDLAVYYCQQHFNYPYTFGGGAKLEMK
notes: Tested as the mouse antibody from the hybridoma (culture supernatant or Protein G purified); the primers used were for mouse IgG1 CH and mouse kappa light chain; also called m164; LGR6抗体m164
With B1, the binding result is reported as “binds”.
